Reference: patent US11110182B2, “Multifunctional RNA nanoparticles and methods for treating cancer and therapeutic resistant cancer” (University of Cincinnati, priority 2016, dated 2021)

Assay: Tm value by temperature gradient gel electrophoresis (TGGE) assay
Type: physicochemical
Experimental: Cell culture. Human breast cancer luciferase-overexpressing BT474 and MDA-MB-231 cells were maintained in DMEM medium (Hyclone, Thermo Scientific) supplemented with 10% fetal bovine serum (FBS, Sigma) and 1% penicillin/streptomycin (Corning) at 37° C. in a humidified atmosphere with 5% CO2.^53 • Generation of pRNA nanoparticles. The two strands of pRNA were synthesized with the DNA templates, which were amplified with overlapping primers (Sigma) by PCR methods, using a T7 promoter-controlled in vitro RNA transcription system as previously described^33 (Table 1). […] The hydrodynamic diameter and Tm value of pRNA nanoparticles were determined using dynamic light scattering and TGGE assay, respectively, as previously described.^54 The AFM imaging of the pRNA nanoparticles was performed at the University of Nebraska Medical Center imaging facility as previously reported.^55 Briefly, the pRNA nanoparticles (5 μL) were deposited on APS modified mica ^56 for a total of 2 min of incubation time. […] After washing three times with PBS, the cellular uptake of pRNAs was determined using a BD LSRFortessa™ flow cytometer. • Real-time PCR. […] The expression of MED 1, TFF1, c-Myc, cyclinD1 and MMP-9 was analyzed using GAPDH as the internal reference. • Western blot analyses. […]

B1: pRNA-HER2apt-siMED1: 3-WJ pRNA nanoparticle bearing a HER2-targeting RNA aptamer and two different MED1 siRNAs; strands p1 SEQ ID NO: 3, p2 SEQ ID NO: 4 (nucleic acid)
chain 1: GGACAGUGAAAGUGAGUCAAAGGAUCAAUCAUGGCCAAAGAUGUUACUUUGAGAGCCUU
chain 2: GGCUCUCAAAGUAACAUCUAAGGCCAUGUGUAUGUGGGGGGAGGACGAUGCGGUCUGCUGUGCUUGAUAUGCCCCAGACGACUCGCCCCCCACAUACUUUGUUGAUCCAAUGACUCACUUUCACUGUCCUU
modifications: 2'-F modification; third strand may lack entry; pRNA-HER2apt-siMED1, p1; pRNA-HER2apt-siMED1, p2
Q: Which Tm value does the source give for B1 here?
A: Its Tm value is 78±2 °C.
